# Reference: FireProtDB (doi:10.1016/0014-5793(94)01308-n)
# Where “and” joins values, the source holds several entries; their conditions need not be identical. Equal entries are not always repeated.
# B1: Gastricsin wild type, P30879 (protein)
# chain: SVIKVPLKKLKSIRQAMKEKGLLEEFLKTHKYDPAQRYRIGDISVALEPMAYLEAAYFGEISIGTPPQNFLVL
# Conditions: Sus scrofa, Thermal, DSC, Sodium phosphate 5 mM, reversible: yes, whole UniProt chain shown
protein,measurement,setting,value
B1,Tm,pH 6,66.2 °C
same,unfolding enthalpy (calorimetric),pH 6,254 kcal/mol
same,unfolding enthalpy (calorimetric),pH 6.4,248 kcal/mol and 269 kcal/mol
same,Tm,pH 6.8,47.2 °C
same,unfolding enthalpy (calorimetric),pH 6.8,221 kcal/mol
same,Tm,pH 7.2,56.1 °C
same,unfolding enthalpy (calorimetric),pH 7.2,195 kcal/mol
same,Tm,pH 7.3,39.8 °C
same,unfolding enthalpy (calorimetric),pH 7.3,192 kcal/mol
same,Tm,pH 7.7,55 °C
same,unfolding enthalpy (calorimetric),pH 7.7,173 kcal/mol
same,Tm,pH 8,51.1 °C
same,unfolding enthalpy (calorimetric),pH 8,182 kcal/mol
same,Tm,pH 8.2,33.8 °C
same,unfolding enthalpy (calorimetric),pH 8.2,170 kcal/mol
